Our source for the time constant (τ) of tail engagement values is article doi:10.1101/2022.06.27.497739.

Where two headings read alike, the source gives them in different places.

Test [1] deals with Rpt1-I191AzF-Cy3 base (budding yeast (S. cerevisiae)) (UniProt P33299). Put plainly: FRET or BRET.
Test [2] has the same target. Description: FRET or BRET. The source holds these as a separate data set.

Turning to “polyubiquitinated titin-I27^V15P-Tail substrate labeled with Cy5 on its unstructured initiation domain (from UniProt P0CG63 1-76)”, the figures for the time constant (τ) of tail engagement in test [1] and in test [2] were 16.4 s and 10.4 s, respectively.
